In publication PMC10127692, “SARS-CoV-2 SUD2 and Nsp5 Conspire to Boost Apoptosis of Respiratory Epithelial Cells via an Augmented Interaction with the G-Quadruplex of BclII”:

What was measured:
[1] = target: SUD2core (SUD2-N+M of Nsp3);Nsp5 (SARS-CoV-2;SARS-CoV-2, UniProt P0DTC1;P0DTC1 1230-1493;3264-3569, |); experiment: pull-down; 100 mM K+; Nsp5 added; conditions: protein: recombinant;recombinant; tags: His;GST; label: 5'-biotin (BLI, pulldown); Cy5 (EMSA); G4, folded in 100 mM K+
[2] = target: T1, SUD2core (SUD2-N+M of Nsp3) (SARS-CoV-2, UniProt P0DTC1 1230-1493); experiment: BLI; 100 mM K+; conditions: protein: recombinant; tags: His; label: 5'-biotin (BLI, pulldown); Cy5 (EMSA); G4, folded in 100 mM K+
[3] = target: T1, SUD2core (SUD2-N+M of Nsp3); experiment: pull-down; 100 mM K+; positive control; conditions: protein: recombinant; tags: His; label: 5'-biotin; G4

Binder: GGGCGCGGGAGGAATTGGGCGGG (structured_DNA) [Bcl2G4WT (G4 folded)]
- binding signal [1]: 6.3 fold SUD2core retained vs without Nsp5
- Kd [2]: 85 nM

Binder: TTGAGGGTGGGTAGGGTGGGTAA (structured_DNA) [MYCG4]
- binding result [3]: binds
